Biological target: human prominin-1 (CD133) (human) (UniProt O43490)
Experiment: cell-based or functional assay

UniProt O43490, sequence (O43490 20-865): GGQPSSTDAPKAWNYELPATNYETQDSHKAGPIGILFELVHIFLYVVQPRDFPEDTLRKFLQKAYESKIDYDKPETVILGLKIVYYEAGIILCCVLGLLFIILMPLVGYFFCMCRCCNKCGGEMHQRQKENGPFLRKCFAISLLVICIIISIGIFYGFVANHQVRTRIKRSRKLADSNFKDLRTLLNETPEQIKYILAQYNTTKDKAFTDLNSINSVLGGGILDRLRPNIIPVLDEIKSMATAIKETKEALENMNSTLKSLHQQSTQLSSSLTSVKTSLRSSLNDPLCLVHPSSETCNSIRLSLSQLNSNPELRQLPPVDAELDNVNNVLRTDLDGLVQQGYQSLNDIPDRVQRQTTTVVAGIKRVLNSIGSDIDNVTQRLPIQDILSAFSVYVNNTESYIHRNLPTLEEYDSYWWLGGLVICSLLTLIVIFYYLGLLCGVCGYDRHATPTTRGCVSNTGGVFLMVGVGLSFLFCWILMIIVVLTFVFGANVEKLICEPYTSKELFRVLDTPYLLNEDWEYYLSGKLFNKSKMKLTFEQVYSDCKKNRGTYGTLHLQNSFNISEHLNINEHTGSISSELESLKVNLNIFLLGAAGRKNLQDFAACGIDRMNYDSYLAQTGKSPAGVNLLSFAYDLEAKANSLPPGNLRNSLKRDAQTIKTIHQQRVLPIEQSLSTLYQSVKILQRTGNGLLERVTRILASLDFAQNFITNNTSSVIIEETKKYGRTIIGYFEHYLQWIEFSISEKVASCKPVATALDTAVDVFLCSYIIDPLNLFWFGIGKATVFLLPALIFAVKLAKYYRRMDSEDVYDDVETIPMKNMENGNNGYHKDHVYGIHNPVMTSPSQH

| IC50, growth inhibition (3H-thymidine) of Caco-2 cells | Substance | IC50, cytotoxicity (resazurin) on HEK293 cells stably expressing CD133 | IC50, cytotoxicity (rezasurin dye conversion) in Hep3B cells | IC50, cytotoxicity assay in Caco-2 cells |
| --- | --- | --- | --- | --- |
| 100 ng/mL | AC133-mcMMAF (AC133 conjugated to maleimidocaproyl-MMAF) (antibody) | 1 ng/mL | 6 nM |  |
| 1000 ng/mL | AC133-vcMMAE (AC133 conjugated to maleimidocaproyl-valine-citrulline-p-aminobenzoyl-MMAE) (antibody) | 6 ng/mL |  |  |
| < 1 ng/mL | AC133-vcMMAF (AC133 conjugated to maleimidocaproyl-valine-citrulline-p-aminobenzoyl-MMAF) (antibody) | 1 ng/mL | 0.35 nM | 3 ng/mL |

Reference: patent publication US20100040637A1
